Measured values reported in patent US20110151450.
Residue numbers refer to the chain shown, from its start.

Legend:
Assay in all cases: cleavage_in_vitro
[1] = test system: T1, NspI-WT (Nostoc species); conditions: NEB4, BSA, relative activity 50%
T1 sequence: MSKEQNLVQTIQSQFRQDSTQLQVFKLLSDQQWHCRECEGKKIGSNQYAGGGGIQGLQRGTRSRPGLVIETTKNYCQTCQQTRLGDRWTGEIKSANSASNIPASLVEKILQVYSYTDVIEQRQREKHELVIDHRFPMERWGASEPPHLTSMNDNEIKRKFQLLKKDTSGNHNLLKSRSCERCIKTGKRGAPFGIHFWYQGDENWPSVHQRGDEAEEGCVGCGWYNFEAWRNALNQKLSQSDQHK

[2] = test system: T2, NspI-HF S97A (Nostoc species); conditions: NEB4, BSA, relative activity 100%
T2 sequence: T1 sequence with S97A

[3] = target: T3, BglI-HF K225A (Bacillus globigii) (UniProt O68557); conditions: NEB4, relative activity 100%
T3 sequence: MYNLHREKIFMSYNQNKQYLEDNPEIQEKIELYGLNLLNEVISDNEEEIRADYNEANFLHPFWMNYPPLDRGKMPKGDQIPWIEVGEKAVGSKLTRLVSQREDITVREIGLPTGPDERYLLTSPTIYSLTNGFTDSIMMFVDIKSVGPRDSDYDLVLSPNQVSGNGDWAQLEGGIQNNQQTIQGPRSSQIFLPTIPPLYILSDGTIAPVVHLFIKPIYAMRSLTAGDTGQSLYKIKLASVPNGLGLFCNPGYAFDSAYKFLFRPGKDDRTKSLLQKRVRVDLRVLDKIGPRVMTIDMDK

[4] = test system: T4, MluI-WT (Micrococcus luteus); conditions: NEB4, relative activity 25%
T4 sequence: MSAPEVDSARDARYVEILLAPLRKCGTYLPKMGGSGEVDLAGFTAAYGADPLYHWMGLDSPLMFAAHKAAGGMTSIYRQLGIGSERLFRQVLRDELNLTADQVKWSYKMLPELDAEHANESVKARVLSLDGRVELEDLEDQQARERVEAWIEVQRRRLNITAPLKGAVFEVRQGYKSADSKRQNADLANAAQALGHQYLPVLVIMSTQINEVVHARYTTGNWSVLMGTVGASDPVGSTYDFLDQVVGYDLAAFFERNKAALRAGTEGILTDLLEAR

[5] = test system: T5, BstEII-HF R105A (Bacillus stearothermophilus); conditions: NEB4, relative activity 100%
T5 sequence: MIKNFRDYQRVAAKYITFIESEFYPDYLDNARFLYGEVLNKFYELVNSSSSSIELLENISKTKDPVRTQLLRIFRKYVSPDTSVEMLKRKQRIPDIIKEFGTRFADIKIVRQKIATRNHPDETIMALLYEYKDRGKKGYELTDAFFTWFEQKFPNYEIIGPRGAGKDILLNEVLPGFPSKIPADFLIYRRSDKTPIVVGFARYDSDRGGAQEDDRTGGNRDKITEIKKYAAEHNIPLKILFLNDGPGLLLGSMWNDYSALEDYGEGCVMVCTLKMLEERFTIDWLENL

[6] = target: T6, BanI-WT (Bacillus aneurinolyticus) (UniProt P19887); conditions: NEB4, relative activity 100%
T6 sequence: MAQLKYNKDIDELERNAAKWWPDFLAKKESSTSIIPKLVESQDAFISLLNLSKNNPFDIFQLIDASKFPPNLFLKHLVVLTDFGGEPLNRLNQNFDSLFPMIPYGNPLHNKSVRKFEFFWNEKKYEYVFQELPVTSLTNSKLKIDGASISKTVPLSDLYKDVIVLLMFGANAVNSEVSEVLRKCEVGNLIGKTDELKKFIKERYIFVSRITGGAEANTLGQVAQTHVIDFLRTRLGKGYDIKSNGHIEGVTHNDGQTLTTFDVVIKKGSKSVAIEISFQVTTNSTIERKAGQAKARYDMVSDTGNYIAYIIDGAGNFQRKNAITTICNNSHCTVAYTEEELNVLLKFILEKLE

[7] = target: T7, BglI-WT (Bacillus globigii) (UniProt O68557); conditions: NEB4, relative activity 50%
T7 sequence: T3 sequence with A225K

[8] = test system: T8, BstEII-WT (Bacillus stearothermophilus); conditions: NEB4, relative activity 100%
T8 sequence: T5 sequence with A105R

[9] = target: T9, BanI-HF Q292A (Bacillus aneurinolyticus) (UniProt P19887); conditions: NEB4, relative activity 100%
T9 sequence: T6 sequence with Q292A

[10] = test system: T10, MluI-HF E112A/R132A (Micrococcus luteus); conditions: NEB4, relative activity 100%
T10 sequence: T4 sequence with E112A, R132A

[11] = target: T11, BanII-WT (Bacillus aneurinolyticus) (UniProt P19887); conditions: NEB4, relative activity 100%
T11 sequence: T6 sequence

[12] = test system: T12, BclI-WT (Bacillus caldolyticus); conditions: NEB4, relative activity 100%
T12 sequence: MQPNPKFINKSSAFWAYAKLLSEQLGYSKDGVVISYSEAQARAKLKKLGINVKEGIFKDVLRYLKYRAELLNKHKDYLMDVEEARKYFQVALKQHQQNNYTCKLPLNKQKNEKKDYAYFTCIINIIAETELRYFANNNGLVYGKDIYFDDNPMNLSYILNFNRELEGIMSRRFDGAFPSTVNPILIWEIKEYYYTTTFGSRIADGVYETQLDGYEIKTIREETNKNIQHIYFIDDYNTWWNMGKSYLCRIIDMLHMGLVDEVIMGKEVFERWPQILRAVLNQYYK

[13] = test system: T13, NruI-HF P22A/R90A (Nocardia rubra); conditions: NEB4, relative activity 100%
T13 sequence: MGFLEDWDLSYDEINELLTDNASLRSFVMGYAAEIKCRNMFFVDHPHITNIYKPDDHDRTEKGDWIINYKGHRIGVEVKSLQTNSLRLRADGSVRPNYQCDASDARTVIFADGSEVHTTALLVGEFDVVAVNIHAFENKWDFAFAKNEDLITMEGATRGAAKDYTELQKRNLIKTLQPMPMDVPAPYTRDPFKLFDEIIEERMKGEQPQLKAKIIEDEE

[14] = test system: BanII-HF R126A (Bacillus aneurinolyticus); conditions: NEB4, relative activity 50%
[15] = target: T14, DpnII-WT (Diplococcus pneumoniae) (UniProt P09357); conditions: NEB4, relative activity 25%
T14 sequence: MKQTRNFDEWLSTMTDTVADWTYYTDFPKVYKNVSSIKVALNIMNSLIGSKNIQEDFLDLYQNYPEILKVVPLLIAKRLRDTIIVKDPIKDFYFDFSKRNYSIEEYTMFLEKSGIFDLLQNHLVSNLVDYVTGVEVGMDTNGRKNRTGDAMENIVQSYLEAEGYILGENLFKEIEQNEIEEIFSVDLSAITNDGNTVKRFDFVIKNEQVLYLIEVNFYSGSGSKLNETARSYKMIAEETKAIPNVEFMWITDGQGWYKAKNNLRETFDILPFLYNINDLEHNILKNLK

[16] = test system: T15, BclI-HF Y192F (Bacillus caldolyticus); conditions: NEB4, relative activity 100%
T15 sequence: T12 sequence with Y192F

[17] = target: T16, DpnII-HF R199A (Diplococcus pneumoniae) (UniProt P09357); conditions: NEB4, relative activity 100%
T16 sequence: T14 sequence with R199A

[18] = test system: T17, NruI-WT (Nocardia rubra); conditions: NEB4, relative activity 12.5%
T17 sequence: T13 sequence with A22P, A90R

pUC19 plasmid
activity (fidelity index) [1]: 32
activity (fidelity index) [2]: 500

lambda DNA
activity (fidelity index) [3]: > 8000
activity (fidelity index) [4]: 32
activity (fidelity index) [5]: > 2000
activity (fidelity index) [6]: 16
activity (fidelity index) [7]: 32
activity (fidelity index) [8]: 4
activity (fidelity index) [9]: > 2000
activity (fidelity index) [10]: > 32000

dam- lambda DNA
activity (fidelity index) [11]: 16
activity (fidelity index) [12]: 32
activity (fidelity index) [13]: > 16000
activity (fidelity index) [14]: > 2000
activity (fidelity index) [15]: 1
activity (fidelity index) [16]: > 2000
activity (fidelity index) [17]: 8000
activity (fidelity index) [18]: 32
